Reference: the supplement of paper PMC12764529
± gives the half width of the 95% confidence interval.

Legend:
[1] = folding stability dG unfold (combined trypsin and chymotrypsin); higher = more stable
Summary of the method: (§1)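 Designed mini-proteins (under 80 residues, no cysteine) in a PA-tagged cDNA display construct were digested with trypsin and chymotrypsin. Each protease was used at 11 concentrations (threefold dilutions) plus a no-protease condition, followed by sequencing. K50 was inferred by Bayesian fitting of sequencing counts, and unfolding free energy was derived against a sequence-predicted unfolded-state K50 and a shared folded-state K50, per protease or combined. Only designs with AlphaFold2 dimer inter-PAE above 15 were kept.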

[2] = folding stability dG unfold from trypsin proteolysis; higher = more stable
Summary of the method: as §1

[3] = folding stability dG unfold from chymotrypsin proteolysis; higher = more stable
Summary of the method: as §1

Sequence	folding stability dG unfold [1] [kcal/mol]	folding stability dG unfold [2] [kcal/mol]	folding stability dG unfold [3] [kcal/mol]
SAGGSAGGSIEELAKKTNIIEVKVTEFPNPKFKKAFIVYKNPKENKYKKGIYIFYDKKDGKLESAGGSAGGS [r12_133_TrMRF]	0.313 ± 0.23	-0.185 ± 0.35	0.544 ± 0.43
SAGGSAGGSIEIPGGYTIPSSLSEEEAKEAAKKLFLEKNPELGVKEVEVKVETKNGKKTITVVKSAGGSAGG [r6_558_JUSTAS]	0.714 ± 0.28	0.641 ± 0.074	0.857 ± 0.14
SAGGSAGGSIKPGEEVTINFLVPPGNIPEFANELMKQDGIKDIEVKYQPFPNWYMVDITIRVKSAGGSAGGS [r12_993_TrROS]	0.52 ± 0.096	0.863 ± 0.029	-0.0266 ± 0.14
SAGGSAGGSKAEVVEEKEIFTFPNGFVIKLTKVKNENGEEFEFIEIVPLPPELTEEELKKLKESAGGSAGGS [r12_775_TrROS_Hall]	1.79 ± 0.065	0.711 ± 0.033	2.14 ± 0.023
SAGGSAGGSKEFKVEEVGGRLYITFPDGTVVEVRFDKPVTFDLKTGKLYFPEGAEVEKRRLKESAGGSAGGS [r20_158_TrROS_Hall]	0.905 ± 0.26	0.0253 ± 0.24	1.19 ± 0.12
SAGGSAGGSKEKKTVILRIKIYVKNENGELIEEIEIPLKDLTLEELKELAKKLNVKVEIELLPSAGGSAGGS [r12_398_TrROS_Hall]	3.05 ± 0.2	1.69 ± 0.16	3.5 ± 0.14
SAGGSAGGSKEKKYLVIELKLKVPPGMSPEELAKLLESLPGLKVVEIVEVDEESGTVKIVVELSAGGSAGGS [r12_712_TrROS_Hall]	3.07 ± 0.16	2.02 ± 0.046	3.54 ± 0.096
SAGGSAGGSKEPIRVDEFEWRKNKDGMDMVQVTFPNNGKDIHLPPEHLDNLEPGDEIPLDDLISAGGSAGGS [r20_3_TrROS]	-0.138 ± 0.2	-0.677 ± 0.12	0.192 ± 0.17
SAGGSAGGSKEVKTIKVEITITDKNGKKITVKAEIVYDKKTKKYYIKIRNKKTNKTYIIELKLSAGGSAGGS [r20_71_TrROS_Hall]	4.47 ± 0.08	3.29 ± 0.088	4.753 ± 0.047
SAGGSAGGSKFEITEVSVELVEVDGKLYLKVSMTIKNEDGSTYKISLVYDLENNELYLSIEKVSAGGSAGGS [r12_1035_TrROS_Hall]	5.87 ± 0.37	4.12 ± 0.43	5.7 ± 0.16
SAGGSAGGSKFKIVSIEVTVETNEDGSKTLTVKIRLEDGSEITITVPENATLEEVLKLLKELASAGGSAGGS [r12_1047_TrROS_Hall]	4.31 ± 0.11	3.88 ± 0.2	4.42 ± 0.051
SAGGSAGGSKGPMITITLFILVRPDDGKYYATVIEMYIYPNGGIDIEMEMIPADDIPPGDIVISAGGSAGGS [r12_38_TrROS]	4.55 ± 0.22	2.94 ± 0.17	4.74 ± 0.15
SAGGSAGGSKIEFTVPDNDELIEYIRKWFQDNGGQIKNIKIEPTPPNQVKVEIEINPGDPWFQSAGGSAGGS [r12_647_TrROS]	2.2 ± 0.14	1.74 ± 0.041	2.36 ± 0.077
SAGGSAGGSKIEITVKTKEELLEAIRKLAEEKGYEIVSIKIEKLPDGTYKVTIEIRKNDPLLKSAGGSAGGS [r12_647_TrROS_Hall]	2.38 ± 0.12	1.35 ± 0.083	2.79 ± 0.076
SAGGSAGGSKIKPGEKVEIKLKIKVKDKNGKEKEIELTFSKDMTVEEIKKLLKELEKKGFEIESAGGSAGGS [r20_27_TrROS_Hall]	2.72 ± 0.33	1.56 ± 0.12	3.23 ± 0.24
SAGGSAGGSKIPPGEPVTLPIFFIIWDPENGRPYAMRMEITFDAPDGNITKMNEEVIPPGQPFSAGGSAGGS [r12_868_TrROS]	1.54 ± 0.14	1.5 ± 0.056	1.49 ± 0.17
SAGGSAGGSKITVERNEDGELFVRITFKDGKTITIKAKSVEELKEKLKELGFDVKVEVVERKPSAGGSAGGS [r20_124_TrROS_Hall]	4.18 ± 0.087	2.74 ± 0.084	4.58 ± 0.071
SAGGSAGGSKITVHRNPPGYYVIRIHGPGPITIMIPPKDADELANKLKDLGFDMKVEVYPLDDSAGGSAGGS [r20_124_TrROS]	1.1 ± 0.11	1.23 ± 0.028	1.05 ± 0.1

Sequence	folding stability dG unfold [1] [kcal/mol]	folding stability dG unfold [2] [kcal/mol]	folding stability dG unfold [3] [kcal/mol]
SAGGSAGGSKKDPEDNPEQAKPPIPPIRVEIYPPDGQPETFEFHSLEEITEWIQERGYTVKIESAGGSAGGS [r12_244_TrROS]	0.974 ± 0.065	0.668 ± 0.022	1.12 ± 0.051
SAGGSAGGSKKIKITVVVPKEEAEKLLKELEKAGYKIVSVEKKEIPENELVVIEIVIEKPEELSAGGSAGGS [r12_445_TrROS_Hall]	3.65 ± 0.31	3.09 ± 0.14	4.13 ± 0.24
SAGGSAGGSKKKIKVIIEVEVNGKKYKIEVEAETEEEAKKKAEEAIKELKKKFPNVKIKKIKPSAGGSAGGS [r12_230_TrROS_Hall]	3.51 ± 0.26	2.38 ± 0.13	4.08 ± 0.25
SAGGSAGGSKKKKKKKKKIKVLIRNKKTGKWFEAEAEVVDGELYIKVNGKIYKIKGPVEIELVSAGGSAGGS [r12_683_TrROS_Hall]	3.3 ± 0.048	2.38 ± 0.043	3.686 ± 0.019
SAGGSAGGSKKKKVIEIKISEEELKKLGLTKEEIAKKLAEKFPNIKKNVRIEKNKDGTLKIYVSAGGSAGGS [r12_50_TrROS_Hall]	1.18 ± 0.31	1.22 ± 0.072	1.27 ± 0.092
SAGGSAGGSKKKLKLVIKLKKGEKAPTAEELKKKLEELGFEIKDIKVVEKDGELYVVLEIELKSAGGSAGGS [r12_1052_TrROS_Hall]	3.24 ± 0.32	2.67 ± 0.35	3.4 ± 0.14
SAGGSAGGSKKKNKPAPPVLVVKVEIVKIELSDEELEAIKKNKEKIKEIYLIKIEVTLVEPEESAGGSAGGS [r12_196_TrROS_Hall]	1.94 ± 0.14	1.17 ± 0.11	2.18 ± 0.062
SAGGSAGGSKKKTVEEILKELKKKKNKIIKIKYKDGSTYYINIKTGKIIKLKNIKNVKIEILPSAGGSAGGS [r20_44_TrROS_Hall]	3.55 ± 0.32	2.73 ± 0.14	4.44 ± 0.1
SAGGSAGGSKKKVTINIVLTVKPGETLTLTVEITIDGKKYKVTKTLTYDPKTNKLVLTATVEPSAGGSAGGS [r12_136_TrROS_Hall]	5.03 ± 0.29	3.78 ± 0.32	5.03 ± 0.24
SAGGSAGGSKKKYTVEELLKKLKPGDIALVKINGKWREVSVEELKKLPPGAEVEVEVFKLKPPSAGGSAGGS [r12_501_TrROS_Hall]	3.34 ± 0.16	2.84 ± 0.11	3.51 ± 0.072
SAGGSAGGSKKPKITITIEILVKNEDGKLYLFRIEIEINENGEISIKMEIFELKDIKPGDILLSAGGSAGGS [r12_38_TrROS_Hall]	3.56 ± 0.38	2.63 ± 0.19	3.94 ± 0.13
SAGGSAGGSKKPPIYKIEIEIDGKKLTIEAKSKEEALKALKEELKKKYPNLKITKIKIEKVKPSAGGSAGGS [r12_429_TrROS_Hall]	2.14 ± 0.15	1.52 ± 0.088	2.4 ± 0.14
SAGGSAGGSKKPVLAKIAILNSGSPEVAEELAKRLAAELGLSPDEVKVELHVIPVTAPGELLFSAGGSAGGS [r12_1066_TrMRF]	0.416 ± 0.043	0.465 ± 0.02	0.328 ± 0.063
SAGGSAGGSKKVEVEILLLLPESTTEEEAKALAEELAEKIKEATPADDVEVKVVILKVPKNALSAGGSAGGS [r12_522_TrMRF]	1.92 ± 0.21	2 ± 0.12	1.89 ± 0.048
SAGGSAGGSKKVKEVTITVKNKDGKTVKITKIYKKKDGSKYVLIKDKKTKKTYKISLEDLKKLSAGGSAGGS [r12_488_TrROS_Hall]	1.8 ± 0.14	1.11 ± 0.05	2.29 ± 0.076
SAGGSAGGSKKVKIIEIDLKDMSPEEILELIKKEKVDAIIIKSDTPEAKRLAEKLKEAGFKVISAGGSAGGS [r12_610_TrROS_Hall]	2.05 ± 0.059	1.46 ± 0.043	2.36 ± 0.055
SAGGSAGGSKLEEILKKLPPNAKITIEKDEETNVYTITITNKNGEKYTFTFSKEEVKKLLEKLSAGGSAGGS [r12_174_TrROS_Hall]	4.62 ± 0.22	3.13 ± 0.19	4.76 ± 0.24
